Test results published in paper PMC7785020, “A unique hormonal recognition feature of the human glucagon-like peptide-2 receptor” (Cell Research, 2020).
Residue numbers refer to the chain shown, from its start.

Key:
GLP-2R Y186^1.47A = biological target: T1, GLP-2R Y186^1.47A (Homo sapiens, UniProt O95838, Y186A); assay: cAMP accumulation, Y186^1.47A; assay type: cell-based; design: WT (1–553); expressed in transfected cells; HEK 293T (cAMP); conditions: Table S3, Y186A; HEK 293T, 30 min, RT; mean ± SEM, n ≥ 3 in duplicate; read-out: cAMP Emax (% WT)
T1 sequence (O95838 1-553 Y186A): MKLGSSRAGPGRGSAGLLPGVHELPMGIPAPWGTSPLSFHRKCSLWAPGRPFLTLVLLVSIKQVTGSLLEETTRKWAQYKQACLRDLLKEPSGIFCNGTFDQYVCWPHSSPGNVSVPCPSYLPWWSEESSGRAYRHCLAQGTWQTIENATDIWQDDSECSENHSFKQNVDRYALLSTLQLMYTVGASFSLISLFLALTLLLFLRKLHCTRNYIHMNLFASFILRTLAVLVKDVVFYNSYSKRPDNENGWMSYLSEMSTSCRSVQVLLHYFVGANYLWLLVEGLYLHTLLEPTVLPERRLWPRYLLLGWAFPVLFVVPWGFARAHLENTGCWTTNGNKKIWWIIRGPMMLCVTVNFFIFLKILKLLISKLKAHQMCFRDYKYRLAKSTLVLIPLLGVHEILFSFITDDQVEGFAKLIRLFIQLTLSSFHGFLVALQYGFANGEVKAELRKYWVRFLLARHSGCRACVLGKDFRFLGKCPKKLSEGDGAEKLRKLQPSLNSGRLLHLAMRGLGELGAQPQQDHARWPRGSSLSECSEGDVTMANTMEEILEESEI
Protocol: (§1) HEK 293T cells were cultured in Dulbecco’s Modified Eagle’s Medium (DMEM) (Gibco, Waltham, USA) supplemented with 10% (v/v) fetal bovine serum (FBS) (Gibco) and 1% (v/v) sodium pyruvate (Gibco) at 37 °C, 5% CO2 in a humidified incubator. They were seeded onto 6-well cell culture plates and transiently transfected with different GLP-2R constructs using Lipofectamine 2000 transfection reagent (Invitrogen, Carlsbad, CA, USA). After 24 h, the transfected cells were seeded onto 384-well microtiter plates (3000 cells per well) in HBSS supplemented with 5 mM HEPES, 0.1% (w/v) bovine serum albumin (BSA) and 0.5 mM 3-isobutyl-1- methylxanthine, and stimulated with increasing concentrations of GLP-2 for 30 min at RT. Eu and Ulight were diluted by cAMP detection buffer and added to the plates separately to terminate the reaction. Plates were incubated at RT for 60 min before measuring the fluorescence intensity at 620 nm and […] by an EnVision multilabel plate reader (PerkinElmer, Boston, USA).

GLP-2R H268^3.37A = biological target: T2, GLP-2R H268^3.37A (Homo sapiens, UniProt O95838, H268A); assay: cAMP accumulation, H268^3.37A; assay type: cell-based; design: WT (1–553); expressed in transfected cells; HEK 293T (cAMP); conditions: Table S3, H268A; HEK 293T, 30 min, RT; mean ± SEM, n ≥ 3 in duplicate; read-out: cAMP Emax (% WT)
T2 sequence (O95838 1-553 H268A): T1 sequence (O95838 1-553 Y186A) with A186Y, H268A
Protocol: as §1

[1] = biological target: GLP-2R N334^ECL2 A (human) (UniProt O95838); assay: radioligand binding; competition on transiently transfected COS-7 cells: unlabeled teduglutide 0.1 nM to 1 μM against 10–15 pM [125I]GLP-2(1–33, M10Y); 4 h, 4 °C; 50 mM HEPES pH 7.4, 1 mM CaCl2, 5 mM MgCl2, 0.5% BSA; three-parameter logistic fit
GLP-2R ECL1 (GLP-1R) = GLP-2R ECL1 (GLP-1R) (UniProt O95838); assay: as above
[2] = biological target: GLP-2R K414^7.35 A (human) (UniProt O95838); assay: as above
[3] = biological target: GLP-2R D244^ECL1A (human) (UniProt O95838); assay: as above
[4] = biological target: GLP-2R H268^3.37A (human) (UniProt O95838); assay: as above
[5] = biological target: GLP-2R R242^ECL1A (human) (UniProt O95838); assay: as above

Compound | Emax (GLP-2R Y186^1.47A) [%] | Emax (GLP-2R H268^3.37A) [%] | % Binding of WT [1] [%] | % Binding of WT (GLP-2R ECL1 (GLP-1R)) [%] | % Binding of WT [2] [%] | % Binding of WT [3] [%] | % Binding of WT [4] [%] | % Binding of WT [5] [%]
CC[C@H](C)[C@H](NC(=O)[C@H](Cc1ccccc1)NC(=O)[C@H](CC(=O)O)NC(=O)[C@H](CCCNC(=N)N)NC(=O)[C@H](C)NC(=O)[C@H](C)NC(=O)[C@H](CC(C)C)NC(=O)[C@H](CC(N)=O)NC(=O)[C@H](CC(=O)O)NC(=O)[C@H](CC(C)C)NC(=O)[C@@H](NC(=O)[C@@H](NC(=O)[C@H](CC(N)=O)NC(=O)[C@H](CCSC)NC(=O)[C@H](CCC(=O)O)NC(=O)[C@H](CC(=O)O)NC(=O)[C@H](CO)NC(=O)[C@H](Cc1ccccc1)NC(=O)[C@H](CO)NC(=O)CNC(=O)[C@H](CC(=O)O)NC(=O)[C@H](C)NC(=O)[C@@H](N)Cc1c[nH]cn1)[C@@H](C)O)[C@@H](C)CC)C(=O)N[C@@H](CC(N)=O)C(=O)N[C@@H](Cc1c[nH]c2ccccc12)C(=O)N[C@@H](CC(C)C)C(=O)N[C@H](C(=O)N[C@@H](CCC(N)=O)C(=O)N[C@H](C(=O)N[C@@H](CCCCN)C(=O)N[C@H](C(=O)N[C@H](C(=O)N[C@@H](CC(=O)O)C(=O)O)[C@@H](C)O)[C@@H](C)CC)[C@@H](C)O)[C@@H](C)CC [Human GLP-2 (1–33)] | 100 ± 2.8 | 118 ± 22.6 | – | – | – | – | – | –
[^125I]GLP-2(1–33, M10Y) (peptide) | – | – | 2 | 1.2 | 13.9 | 77.5 | 0.7 | 5.1
